From the supplement of paper PMC10724198
± gives the standard deviation of the averaged measurements.

Test system: Saccharomyces cerevisiae
Assay: protein stability index of tFT-peptide fusion (C-terminal peptide) (PSI (0-1 scale)); higher = more stable (slower turnover)
Conditions: genetic background: wild type; temperature: 30 C
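Further: PSI is a weighted mean of sequencing reads over stability bins, variants kept only with over 10 reads, mCherry proximal and sfGFP distal, peptide attached via GGGS linker.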

Sequence | protein stability index
LLCLVSCFGCWL | 0.585 ± 0.052
LLDGAGGGVGEG | 0.738 ± 0.033
LLDLYTLSRLDP | 0.754 ± 0.043
LLDRGLLSALLA | 0.563 ± 0.034
LLDTSTVTCFER | 0.741 ± 0.01
LLFPSPPLPPPL | 0.784 ± 0.15
LLFSTPWVWCLL | 0.623 ± 0.051
LLFTWGGRGCLG | 0.746 ± 0.032
LLGRGVSLFRCG | 0.643 ± 0.3
LLLASSFFTLIL | 0.687 ± 0.043
LLLDIFYWTVQS | 0.615 ± 0.049
LLLDRGISLLLL | 0.607 ± 0.026
LLLLIPCYSPPP | 0.659 ± 0.071
LLLLLPPLPFVP | 0.66 ± 0.035
LLLPPRLPNISP | 0.709 ± 0.044
LLLSPSRLPPAD | 0.676 ± 0.043
LLLTGYGLLPST | 0.676 ± 0.079
LLNAARIGNKGP | 0.663 ± 0.06
LLNIPLVFFSFP | 0.58 ± 0.1
LLNLLLFLLPPS | 0.636 ± 0.031
LLPNLFDSQFRE | 0.756 ± 0.044
LLPPPPLPPPRP | 0.67 ± 0.032
LLPPPPPPSTPT | 0.798 ± 0.083
LLPPPPTPDPGP | 0.645 ± 0.0067
LLPPPSRTPPPS | 0.688 ± 0.02
LLPPSLLSPPPF | 0.696 ± 0.094

Sequence | protein stability index
LLPRSPLLPPLH | 0.719 ± 0.0048
LLPSPSYPLSPS | 0.751 ± 0.037
LLPTRPAPHLSL | 0.704 ± 0.17
LLRGDVVALRAH | 0.618 ± 0.052
LLRLLYVGVVGR | 0.573 ± 0.027
LLRRSNLLHLVL | 0.574 ± 0.049
LLRYKWSRHLVG | 0.47 ± 0.046
LLSLFLLSPSVI | 0.681 ± 0.007
LLSLRSPCSSSR | 0.697 ± 0.066
LLSPLRPPPFAP | 0.698 ± 0.041
LLSVFPLHPGSP | 0.73 ± 0.047
LLVLHVFPLASH | 0.553 ± 0.035
LLVLSTVFNYPI | 0.655 ± 0.071
LLWPVFQCLPLL | 0.729 ± 0.045
LLYPRYFSTGIT | 0.558 ± 0.065
LMHDIRLCSSVV | 0.702 ± 0.074
LMLSGFGSFCVA | 0.659 ± 0.025
LMRFFSCTLSFE | 0.62535 ± 0.00026
LMRSFLHFHLCL | 0.632 ± 0.01
LMVCQKPYCMRI | 0.678 ± 0.0014
LNLISGVRFSLY | 0.675 ± 0.043
LNQHEQKRKNEG | 0.724 ± 0.098
LNRTLCYKCILR | 0.564 ± 0.018
LNSTDMNKKKFK | 0.719 ± 0.0092
LPAEGSTKSRSY | 0.741 ± 0.055
LPAPLLSPPRHF | 0.746 ± 0.072

Sequence | protein stability index
LPARSLPPPRPP | 0.653 ± 0.0089
LPASSPTEYPPP | 0.713 ± 0.049
LPFFFPPFFITR | 0.532 ± 0.013
LPFLLPLVTPLP | 0.696 ± 0.068
LPFPPSPPLPSP | 0.57 ± 0.0099
LPGFTLPSSPSH | 0.702 ± 0.034
LPGGLSPPPFRI | 0.715 ± 0.064
LPGTVELHSSRL | 0.755 ± 0.022
LPHPRLPSPPGP | 0.6858 ± 0.0056
LPILPSPLPPPL | 0.69 ± 0.049
LPIPCPSPPPPR | 0.708 ± 0.052
LPLPPRFRRLYL | 0.7 ± 0.038
LPLPVLPCVPPV | 0.595 ± 0.028
LPLQYPPSLLRL | 0.6655 ± 0.0065
LPLRVPPPPSSH | 0.743 ± 0.085
LPLSGIETSVSR | 0.683 ± 0.03
LPLSSLLRPRHS | 0.684 ± 0.056
LPNLCRLISFGS | 0.646 ± 0.036
LPPAPLLSLPSL | 0.6921 ± 0.0034
LPPCSPLIFYFH | 0.636 ± 0.032
LPPHSAPLAHGP | 0.714 ± 0.065
LPPLAACAPSAV | 0.615 ± 0.051
LPPLAPAPPTTS | 0.617 ± 0.0065
LPPLLAPPVSPL | 0.698 ± 0.039
LPPPLPPATPPP | 0.675 ± 0.16
LPPPPPSSSPSP | 0.7005 ± 0.0067

Sequence | protein stability index
LPPPPRPLPPSP | 0.696 ± 0.04
LPPPPSFTSPHL | 0.743 ± 0.12
LPPPSLPPLPLF | 0.728 ± 0.065
LPPPSPGLPLSP | 0.6773 ± 0.0059
LPPRAPPTCFPL | 0.658 ± 0.12
LPPRPPPPPPPA | 0.62606 ± 2.4e-05
LPPRPTPPPPPP | 0.71 ± 0.056
LPPSNYPCPSGK | 0.706 ± 0.02
LPPSPPDPTPPP | 0.594 ± 0.0095
LPPSQLPPPHLT | 0.662 ± 0.019
LPPSTSPPIRPP | 0.663 ± 0.043
LPPTAPAPPSPP | 0.716 ± 0.086
LPPTLPPPPPAL | 0.724 ± 0.032
LPQAVPCRTPPL | 0.679 ± 0.054
LPQLPNSRRLPL | 0.648 ± 0.049
LPQSSRKEAHHH | 0.78 ± 0.062
LPRELFSQQRFL | 0.713 ± 0.0097
LPRLSPSPRPSR | 0.719 ± 0.008
LPRPPLLTPSCL | 0.746 ± 0.06
LPRSAPLHFPAC | 0.688 ± 0.02
LPSCKVSLASLL | 0.6281 ± 0.0035
LPSLFSPPLFPL | 0.702 ± 0.0017
LPSPPASSPRRS | 0.684 ± 0.025
LPVDPDTIIVVK | 0.663 ± 0.019
LPVFVIGEFLLV | 0.49 ± 0.037
LQEQIHKPPKPQ | 0.72 ± 0.00088

Sequence | protein stability index
LRAPFGWVKRFL | 0.663 ± 0.069
LRFGGWFLIGLR | 0.583 ± 0.021
LRGPRRAVEGTP | 0.66 ± 0.031
LRIAKSGVGGFA | 0.636 ± 0.029
LRISIEVTNYGP | 0.517 ± 0.021
LRIYIKTGAKGV | 0.71448 ± 0.00053
LRKAKRDKRIKI | 0.759 ± 0.075
LRKDVRTRSNTK | 0.806 ± 0.051
LRKGGGVGVWRG | 0.687 ± 0.012
LRLCPAPYIPVL | 0.591 ± 0.012
LRLDFPPARPHS | 0.697 ± 0.044
LRLLCRTRCYRS | 0.666 ± 0.019
LRLPKGVSLVDI | 0.6093 ± 0.0053
LRLPPPLCPLRS | 0.623 ± 0.054
LRLPSHHPLCYF | 0.684 ± 0.011
LRPCAGAVRPSA | 0.724 ± 0.0099
LRPGVRHFRECV | 0.627 ± 0.096
LRPLVRLLHSYP | 0.718 ± 0.031
LRPPPPSAGAPP | 0.708 ± 0.088
LRRPVDPSHIPI | 0.663 ± 0.07
LRRRGHCLRGEL | 0.6313 ± 0.0023
LRRTMRLASASF | 0.831 ± 0.014
LRSCLSIYDCSS | 0.618 ± 0.16
LRSHKIVDQDPF | 0.7235 ± 0.005
LRSPFPTPSDLV | 0.714 ± 0.051
LRSPSDSLALPL | 0.666 ± 0.028

Sequence | protein stability index
LRVGMWNNVINR | 0.734 ± 0.12
LRVVISWGLDLY | 0.529 ± 0.02
LRWFLTGWPRGE | 0.699 ± 0.16
LRYARAPFPAPP | 0.699 ± 0.024
LSARIGEMVDTW | 0.56 ± 0.027
LSARSSFIFSYY | 0.645 ± 0.017
LSDGATDIGCLL | 0.741 ± 0.037
LSDKTALDRPVH | 0.625 ± 0.057
LSDMNHVLKVFL | 0.665 ± 0.054
LSEFFLSAFLSC | 0.712 ± 0.011
LSFFGPPFPISF | 0.74 ± 0.043
LSFPFLFSVPFL | 0.733 ± 0.021
LSGCASGYRPPW | 0.683 ± 0.047
LSGGAVVEVHFL | 0.674 ± 0.011
LSGLLGGGAGTL | 0.678 ± 0.013
LSGLVPSLGCRR | 0.786 ± 0.06
LSGPPVSVQRSF | 0.594 ± 0.03
LSGYLVCSLSLR | 0.695 ± 0.045
LSIIRSPDWVDC | 0.639 ± 0.059
LSLDMVAPTGLA | 0.686 ± 0.014
LSLPTLPLPPPS | 0.7173 ± 0.006
LSLSILFTPSPN | 0.682 ± 0.051
LSLSPPPASPIP | 0.692 ± 0.011
LSPFPLFAPFNF | 0.635 ± 0.039
LSPHSSLTPPPH | 0.616 ± 0.037
LSPLPPDLPDLP | 0.699 ± 0.12

Sequence | protein stability index
LSPLPPSPPPST | 0.543 ± 0.025
LSPPPPLALTPS | 0.709 ± 0.021
LSPTPSAPPCFG | 0.601 ± 0.043
LSRFLPESVYMS | 0.679 ± 0.011
LSRFPSPPPLSH | 0.701 ± 0.024
LSRLRVLLTPIS | 0.56 ± 0.075
LSRVLQAPRRGG | 0.681 ± 0.0075
LSSCLFDPIFLF | 0.783 ± 0.018
LSSQCIVQLFRA | 0.64 ± 0.025
LSSSTHNLDFLQ | 0.698 ± 0.041
LSSTIFHRSCVR | 0.759 ± 0.02
LSTCSFSFFLHT | 0.66 ± 0.019
LSTSLPLSPPPP | 0.652 ± 0.013
LSTTQSKTLNPR | 0.682 ± 0.052
LSVFWRGSLWTL | 0.635 ± 0.023
LSVMACGMGESI | 0.696 ± 0.017
LSVVLARLCQGS | 0.6842 ± 0.0052
LSYGQKARIKRE | 0.703 ± 0.075
LSYPPPPTQPPA | 0.734 ± 0.0083
LTAFFPFSTFFP | 0.714 ± 0.042
LTEFVVFFFFVF | 0.5166 ± 0.0049
LTFILGPPRMWL | 0.669 ± 0.018
LTFSVQCVYFDS | 0.571
LTGESGDRSVGP | 0.657 ± 0.019
LTPGFSRIDRAP | 0.718 ± 0.062
LTRLAYGLATAL | 0.664 ± 0.019

Sequence | protein stability index
LTRQCLLPGWGL | 0.707 ± 0.067
LTRSIKVWRAMR | 0.686 ± 0.018
LTSPPRPAFVRV | 0.636 ± 0.035
LTSSYSLCFLAP | 0.696 ± 0.011
LTTPTIAKTREN | 0.691 ± 0.016
LTVLPAVNCFPV | 0.681 ± 0.021
LVAFNCVVLGKG | 0.686 ± 0.014
LVCHDWFSFYMF | 0.64 ± 0.035
LVDEGRGLRWSR | 0.679 ± 0.0075
LVFPRCAFGFCF | 0.6791 ± 0.0047
LVFRSMFFFRLF | 0.66 ± 0.017
LVGGFLVSGRAR | 0.69 ± 0.051
LVGLNNSFVSKA | 0.6448 ± 0.0039
LVGTFTEKFRVC | 0.578 ± 0.023
LVHVPVCFLSVL | 0.557 ± 0.0021
LVLLPLPLPLFP | 0.578 ± 0.015
LVMQSVQDDPVF | 0.692 ± 0.0081
LVPLPLPPPPPS | 0.672 ± 0.0028
LVQPHGSRFGLA | 0.644 ± 0.012
LVRPGSTRDKRT | 0.736 ± 0.034
